Test results reported in publication PMC4629891.

Biological target: nucleolin (on the surface of live Huh7 cells) (UniProt P19338)
Test: flow cytometry on live Huh7 cells
Settings: 5 mM MgCl2, whole-cell apparent Kd, Dulbecco's PBS, 4.5 g/L glucose, 5 mM MgCl2, 0.1 mg/mL yeast tRNA, 1 mg/mL BSA, on ice 30 min, 2x10^5 cells in 200 uL, pH not stated

Sequence of UniProt P19338 (P19338 whole entry): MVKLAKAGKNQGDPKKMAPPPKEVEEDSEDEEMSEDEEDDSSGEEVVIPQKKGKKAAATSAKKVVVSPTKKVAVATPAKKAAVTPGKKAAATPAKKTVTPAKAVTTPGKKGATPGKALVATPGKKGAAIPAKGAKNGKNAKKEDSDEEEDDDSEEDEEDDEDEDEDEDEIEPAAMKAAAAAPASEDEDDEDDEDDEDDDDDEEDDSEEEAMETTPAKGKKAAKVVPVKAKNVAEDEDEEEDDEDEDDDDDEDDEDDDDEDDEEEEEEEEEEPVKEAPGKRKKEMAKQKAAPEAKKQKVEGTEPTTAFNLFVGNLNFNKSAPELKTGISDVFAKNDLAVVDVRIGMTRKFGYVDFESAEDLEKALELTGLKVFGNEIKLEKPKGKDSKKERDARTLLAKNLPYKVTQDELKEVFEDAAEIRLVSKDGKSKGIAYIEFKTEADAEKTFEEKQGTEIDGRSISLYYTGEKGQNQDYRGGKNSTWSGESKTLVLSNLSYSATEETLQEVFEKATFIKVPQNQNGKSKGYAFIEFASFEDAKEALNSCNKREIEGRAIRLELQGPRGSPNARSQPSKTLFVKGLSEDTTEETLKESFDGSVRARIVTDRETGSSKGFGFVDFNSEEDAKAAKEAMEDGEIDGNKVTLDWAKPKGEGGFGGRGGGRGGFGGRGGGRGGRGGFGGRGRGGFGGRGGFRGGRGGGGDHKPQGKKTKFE

Sequence	Kd [nM]	Kd (doxorubicin adducts via formaldehyde methylene links to guanine N2, 5.4 +/- 0.1 Dox per strand) [nM]
GGTGGTGGTGGTTGTGGTGGTGGTGG [AS1411 (AGRO100)]	54.8	
GGTGGTGGTGGTTGTGGTGGTGGTGG [AS1411-Dox adduct]		57.3
